This is an account of results in patent US20230365709A1 (published 2023).

For assay [1], the target named is T1, recombinant human CD64 expressed on the surface of CHO cells (human, UniProt P12314 16-374).
T1 construct: whole, on cells; also called huCD64
The assay can be described thus: flow cytometry, CHO-huCD64 cells, apparent KD; SD 6.6. On the technique in general: In flow cytometry, cells or beads pass a laser one at a time.

The target in assay [2] is T2, recombinant human NKp46 expressed on the surface of CHO cells (human, UniProt O76036 22-304).
T2 construct: whole, on cells; also called huNKp46; CD355
The assay can be described thus: flow cytometry, CHO-huNKp46 cells, apparent KD; SD 3.7.

The target of assay [3] is T3, recombinant human CD16A (48R/158F) expressed on the surface of CHO cells (human, UniProt P08637 17-254).
T3 construct: also called huCD16A; CD16A (158F)
The assay can be described thus: flow cytometry, CHO-huCD16A cells, apparent KD; SD n.a.

Assay [4] deals with T4, recombinant human CD32A expressed on the surface of CHO cells (human, UniProt P12318 34-317).
T4 construct: whole, on cells; also called huCD32A
T4 sequence (looked up): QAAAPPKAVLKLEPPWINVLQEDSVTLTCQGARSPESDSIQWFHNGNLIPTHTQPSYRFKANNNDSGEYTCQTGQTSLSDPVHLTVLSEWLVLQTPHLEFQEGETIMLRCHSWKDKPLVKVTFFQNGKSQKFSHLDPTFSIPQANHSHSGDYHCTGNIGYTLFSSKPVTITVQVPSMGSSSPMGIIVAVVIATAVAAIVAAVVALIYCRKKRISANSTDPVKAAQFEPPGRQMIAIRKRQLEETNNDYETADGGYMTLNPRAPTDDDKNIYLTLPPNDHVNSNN
The assay can be described thus: flow cytometry, CHO-huCD32A cells, apparent KD; SD 64.3.

Assay [5] concerns the target T1, recombinant human CD64 expressed on the …. The assay can be described thus: flow cytometry, CHO-huCD64 cells, apparent KD; SD 5.8.
The target in assay [6] is T2, recombinant human NKp46 expressed on …. The assay can be described thus: flow cytometry, CHO-huNKp46 cells, apparent KD; SD 1.9.
Assay [7] concerns the target T4, recombinant human CD32A expressed on …. The assay can be described thus: flow cytometry, CHO-huCD32A cells, apparent KD; SD 2169.4.
The target in assay [8] is T1, recombinant human CD64 expressed on the …. The assay can be described thus: flow cytometry, CHO-huCD64 cells, apparent KD; SD 7.7. The method, then:
(§1) The CHO cells were incubated with serial dilutions of the indicated trispecific constructs and control constructs at 37° C., and cell surface bound antibodies were detected by FITC-conjugated goat anti-human IgG Fc and flow cytometric analysis. Measured median fluorescence intensity values were used to calculate apparent affinities (KD) by non-linear regression.

Assay [9] addresses T5, recombinant human NKG2D expressed on the surface of CHO cells (human, UniProt P26718 1-216).
T5 construct: whole, on cells; also called huNKG2D; CD314
T5 sequence (looked up): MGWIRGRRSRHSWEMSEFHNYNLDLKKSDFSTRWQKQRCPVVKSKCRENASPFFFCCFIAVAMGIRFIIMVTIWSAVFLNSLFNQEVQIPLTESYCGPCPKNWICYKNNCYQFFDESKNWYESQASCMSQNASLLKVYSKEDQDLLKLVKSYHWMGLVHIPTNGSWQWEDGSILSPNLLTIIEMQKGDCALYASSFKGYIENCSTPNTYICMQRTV
The assay can be described thus: flow cytometry, CHO-huNKG2D cells, apparent KD; SD 6.8. How it is done:
as §1

The target in assay [10] is T4, recombinant human CD32A expressed on …. The assay can be described thus: flow cytometry, CHO-huCD32A cells, apparent KD; SD n.a. The method, then: as §1

T1 sequence (P12314 16-374): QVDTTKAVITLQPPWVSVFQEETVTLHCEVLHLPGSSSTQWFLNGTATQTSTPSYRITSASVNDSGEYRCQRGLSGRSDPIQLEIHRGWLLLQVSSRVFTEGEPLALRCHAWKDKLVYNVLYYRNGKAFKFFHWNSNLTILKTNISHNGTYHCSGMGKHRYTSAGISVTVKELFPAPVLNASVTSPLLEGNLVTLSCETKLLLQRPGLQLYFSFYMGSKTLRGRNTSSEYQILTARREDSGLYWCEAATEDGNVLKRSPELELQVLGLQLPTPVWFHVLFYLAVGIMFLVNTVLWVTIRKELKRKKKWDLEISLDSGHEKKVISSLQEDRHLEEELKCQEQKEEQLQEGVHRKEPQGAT
T2 sequence (O76036 22-304): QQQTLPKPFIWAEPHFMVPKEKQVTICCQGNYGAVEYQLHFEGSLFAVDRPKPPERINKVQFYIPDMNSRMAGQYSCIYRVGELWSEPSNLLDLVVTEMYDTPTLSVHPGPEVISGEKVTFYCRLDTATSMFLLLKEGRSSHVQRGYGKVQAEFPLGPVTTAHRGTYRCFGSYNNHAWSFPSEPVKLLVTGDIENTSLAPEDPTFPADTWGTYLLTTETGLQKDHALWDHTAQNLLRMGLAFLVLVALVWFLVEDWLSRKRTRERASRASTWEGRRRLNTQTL

B1: scFv-IgAb-396 (bispecific antibody)
chain 1: not shown
chain 2: DIVMTQSPATLSLSPGERATLSCRSSKSLQNVNGNTYLYWFQQKPGQSPQLLIYRMSNLNSGVPDRFSGSGSGTEFTLTISSLEPEDFAVYYCMQHLEYPITFGAGTKLEIKRTVAAPSVFIFPPSDEQLKSGTASVVCLLNNFYPREAKVQWKVDNALQSGNSQESVTEQDSKDSTYSLSSTLTLSKADYEKHKVYACEVTHQGLSSPVTKSFNRGEC
With B1, the Kd in [1] came to 34.1 nM; in [2] it was 9.8 nM; in assay [3], 5190 nM; in assay [4] it was 374 nM.

B2: scFv-IgAb-395 (bispecific antibody)
chain 1: not shown
chain 2: B1 chain 2
As for B2, the Kd in assay [5] was found to be 42.3 nM; in assay [6], 5.7 nM; in assay [7] it was 5630 nM.

B3: AIG-1scFv-6 (ComparatorB_2) (bispecific antibody, human IgG1, kappa)
heavy 1: not shown
light: B1 chain 2
heavy 2: not shown
notes: CD19, wt Fc, NKG2D(ADI-27743)
Turning to B3, the Kd in [8] was 22.8 nM; in assay [9], 22.3 nM; in [10] it was 2530 nM.
